Source: PMC7565527, “Cryo-EM Structure of Heterologous Protein Complex Loaded Thermotoga Maritima Encapsulin Capsid” (Biomolecules, 2020)

Biological target: the molecule itself
Experiment: cryo-EM structure; Encap/IDM complex coexpressed in insect cells, purified by Ni-NTA and Superdex 200; icosahedral reconstruction of the encapsulin shell at 2.87 Å, C1 reconstruction at 4.29 Å

B1: Thermotoga maritima encapsulin capsid protein, C-terminus His-tagged (natural protein)
chain: MEFLKRSFAPLTEKQWQEIDNRAREIFKTQLYGRKFVDVEGPYGWEYAAHPLGEVEVLSDENEVVKWGLRKSLPLIELRATFTLDLWELDNLERGKPNVDLSSLEETVRKVAEFEDEVIFRGCEKSGVKGLLSFEERKIECGSTPKDLLEAIVRALSIFSKDGIEGPYTLVINTDRWINFLKEEAGHYPLEKRVEECLRGGKIITTPRIEDALVVSERGGDFKLILGQDLSIGYEDREKDAVRLFITETFTFQVVNPEALILLKF
notes: T. maritima encapsulin capsid protein; gene amplified from pET14-GFP30-Encap (Addgene #86406); model built from PDB 3DKT; Assembles into an icosahedral shell with 12 fivefold pores; its symmetry expansion ('the other expanded 59 sets') implies 60; also called encapsulin shell; source: insect cells (baculovirus, pFastBac1), coexpressed with cargo, purified (Ni-NTA, Superdex 200); not shown: His …
binding result: binds
